Measured values taken from patent US10538802B2, “Polypeptide substrate for the detection of von Williebrand factor cleaving protease ADAMTS13” (IMMUCOR GTI DIAGNOSTICS, INC., priority 2011, dated 2020).

Target: T1, ADAMTS13 (Homo sapiens, UniProt Q76LX8)
T1 construct: tissue Gen-Probe GTI Diagnostics (ATS-13 kit calibrators, controls and proficiency samples); George King Biomedical Inc. (FACT, A-FACT, B-FACT plasmas) ATS-13; host or cells: plasma
T1 sequence (Q76LX8 75-1427): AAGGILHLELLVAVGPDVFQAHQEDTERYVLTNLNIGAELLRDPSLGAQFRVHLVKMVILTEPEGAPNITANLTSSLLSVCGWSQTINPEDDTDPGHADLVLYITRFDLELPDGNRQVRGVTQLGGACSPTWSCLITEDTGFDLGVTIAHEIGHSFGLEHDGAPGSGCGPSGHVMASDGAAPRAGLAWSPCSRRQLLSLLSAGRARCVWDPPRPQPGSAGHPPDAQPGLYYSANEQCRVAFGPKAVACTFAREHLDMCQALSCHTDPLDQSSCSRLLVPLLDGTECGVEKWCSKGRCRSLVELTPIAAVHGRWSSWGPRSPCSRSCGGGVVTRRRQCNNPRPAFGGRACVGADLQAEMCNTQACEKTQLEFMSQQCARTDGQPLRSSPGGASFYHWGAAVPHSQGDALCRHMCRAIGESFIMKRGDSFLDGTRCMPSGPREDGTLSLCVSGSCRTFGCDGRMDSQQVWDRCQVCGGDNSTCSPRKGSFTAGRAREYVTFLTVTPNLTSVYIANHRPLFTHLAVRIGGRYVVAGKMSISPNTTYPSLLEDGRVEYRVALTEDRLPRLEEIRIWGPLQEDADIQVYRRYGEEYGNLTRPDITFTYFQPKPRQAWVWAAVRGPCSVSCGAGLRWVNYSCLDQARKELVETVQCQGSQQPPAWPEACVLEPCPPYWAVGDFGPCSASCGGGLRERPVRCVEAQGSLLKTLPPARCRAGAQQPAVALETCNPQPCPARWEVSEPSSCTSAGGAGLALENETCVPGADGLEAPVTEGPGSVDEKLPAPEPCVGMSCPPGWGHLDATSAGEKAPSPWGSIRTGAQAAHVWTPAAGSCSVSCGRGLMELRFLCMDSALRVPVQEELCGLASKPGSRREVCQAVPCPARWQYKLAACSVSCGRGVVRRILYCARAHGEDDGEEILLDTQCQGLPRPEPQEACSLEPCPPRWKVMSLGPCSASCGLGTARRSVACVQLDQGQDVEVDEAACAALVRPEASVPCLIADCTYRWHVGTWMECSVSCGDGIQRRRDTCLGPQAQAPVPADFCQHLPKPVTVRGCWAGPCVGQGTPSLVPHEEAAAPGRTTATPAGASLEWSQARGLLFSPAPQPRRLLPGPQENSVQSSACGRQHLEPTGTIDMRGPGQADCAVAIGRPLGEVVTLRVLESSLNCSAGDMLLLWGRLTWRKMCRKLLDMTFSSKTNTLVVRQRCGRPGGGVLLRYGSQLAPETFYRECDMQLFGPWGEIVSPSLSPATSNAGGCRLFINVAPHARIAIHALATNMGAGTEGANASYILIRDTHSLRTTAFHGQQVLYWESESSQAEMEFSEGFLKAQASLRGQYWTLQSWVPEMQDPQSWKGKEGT
Assay: ADAMTS13 activity assay with fluorogenic (FRET) polypeptide substrate and diluted plasma samples
Format: biochemical
Details: for % Normal ADAMTS13 Activity: 30 Minute Incubation Time: Table 5
Description: The procedure in this example was performed substantially as described in Kokame, K., Y. Nobe, Y. Kokubo, A. Okayama, and T. Miyata. 2005. FRETS-VWF73, a first fluorogenic substrate for ADAMTS13 assay. Br. J. Haematol. 129:93-100, but using SEQ ID NO: 1 in place of the 73 amino acid substrate described therein. The FRETS-VWF73 substrate solution was dissolved in 25% dimethyl sulphoxide/water to prepare the 100 microM stock solution. The GTI FRET4 SEQ ID NO: 1 was dissolved in 100% DMSO. Both substrates were diluted to equal concentrations using ATS-13 substrate buffer (Gen-Probe GT1 Diagnostics, Inc., U.S.A., Cat#ATS-13).
Plasma samples were diluted according to the ATS-13 Direction Insert using ATS-13 specimen diluent (Gen-Probe GTI Diagnostics, Inc., U.S.A., Cat# ATS-13). The diluted plasma samples were mixed with the diluted substrate and the fluorescence was read at 0, 5, 10, 15, 20, 30, 45 minutes using a Biotek FLX800 at the appropriate excitation and emission wavelengths for each substrate.
The fluorophore-quencher pair in the SEQ ID NO: 1 polypeptide substrate is FAM-5/TQ 2^Tm (Ex 485±20; Em 528±20; AAT Bioquest, Inc. Sunnyvale, Calif. U.S.A.). The fluorophore and quencher pair of FRETS-VWF73 (Nma/Dnp) described in Kokame has been substituted with FAM-5 and TQ_2 respectively in GTI_FRET4 SEQ ID NO: 1. Furthermore, in the SEQ ID NO: 1 polypeptide the position of the fluorophore (FAM-5) and quencher (TQ_2) has been swapped relative to the position of the fluorophore and quencher of the FRETS-VWF73 construct. Therefore, for GTI_FRET4 SEQ ID NO: 1, attachment of the fluorophore (FAM-5) occurs by substituting asparagine with cystine at position 15. The quencher (TQ_2) was attached by substituting glutamine with lysine at position 4 (FIG. 2 and Table 4).
For this experiment, substrate concentration and fluorescence reader settings determined on the previous experiment are used. The specimens tested (listed in Table 3), include a panel of proficiency samples prepared for use with ATS-13 (Gen-Probe GTI Diagnostics, Inc., U.S.A., Cat# ATS-13) which included samples with normal or deficient ADAMTS13 activity levels. In addition, six Factor Assay ConTrol plasma were used (2 FACT, 2 A-FACT and 2 B-FACT, from George King Biomedical Inc., Kansas, USA). The assays for the SEQ ID NO: 1 substrate and for the prior art FRETS-VWF73 assay were performed generally as according to the procedure described in Example 1. Substrate is prepared according to the conditions used for initial testing of the substrate, which prepared the molar amount of SEQ ID NO: 1 polypeptide substrate used in the assay to be equivalent to the molar amount of FRETS-VWF73 used in the prior art. The […] assays were read at 0, 5, 10, 15, 20, 30, 45 minutes.
Testing of substrate for cleavability by ADAMTS13 is determined as is generally described in Example 1. […]

time through which the calibration curve continued to be linear: ≤ 45 min
trend line of the calibration curve: linear
time at which the calculated % N ADAMTS13 activity plateaus (Example 1): 30 min
difference between Calibrator A (0% ADAMTS13 activity) and Calibrator E (100% ADAMTS13 activity), dynamic range (Example 1, at 30 minutes): approximately 34,000 RFU
difference between Calibrator A and E, dynamic range (Example 2, at 30 minutes): approximately 35000 RFU
% Normal ADAMTS13 Activity: 30 Minute Incubation Time (sample 5 (ATS13-5)): 7 % Normal
% Normal ADAMTS13 Activity: 30 Minute Incubation Time (sample 22 (ATS13-4)): 21 % Normal
% Normal ADAMTS13 Activity: 30 Minute Incubation Time (sample 50 (ATS13-3)): 47 % Normal
% Normal ADAMTS13 Activity: 30 Minute Incubation Time (sample 72 (ATS13-2)): 72 % Normal
% Normal ADAMTS13 Activity: 30 Minute Incubation Time (sample 90 (ATS13-1)): 92 % Normal
% Normal ADAMTS13 Activity: 30 Minute Incubation Time (sample A-FACT lot 900): 10 % Normal
% Normal ADAMTS13 Activity: 30 Minute Incubation Time (sample A-FACT lot 1284): 10 % Normal
% Normal ADAMTS13 Activity: 30 Minute Incubation Time (sample B-FACT lot 1114): 45 % Normal
% Normal ADAMTS13 Activity: 30 Minute Incubation Time (sample B-FACT lot 1266): 46 % Normal
% Normal ADAMTS13 Activity: 30 Minute Incubation Time (sample BCM2): 19 % Normal
% Normal ADAMTS13 Activity: 30 Minute Incubation Time (sample BCM2 HI): 12 % Normal
% Normal ADAMTS13 Activity: 30 Minute Incubation Time (sample BCM2 mixed): 51 % Normal
% Normal ADAMTS13 Activity: 30 Minute Incubation Time (sample CNTL): <Calibrator A
% Normal ADAMTS13 Activity: 30 Minute Incubation Time (sample CNTL HI): <Calibrator A
% Normal ADAMTS13 Activity: 30 Minute Incubation Time (sample CNTL mixed): 4 % Normal
% Normal ADAMTS13 Activity: 30 Minute Incubation Time (sample Calibrator A): 4 % Normal
% Normal ADAMTS13 Activity: 30 Minute Incubation Time (sample Calibrator B): 9 % Normal
% Normal ADAMTS13 Activity: 30 Minute Incubation Time (sample Calibrator C): 29 % Normal
% Normal ADAMTS13 Activity: 30 Minute Incubation Time (sample Calibrator D): 61 % Normal
% Normal ADAMTS13 Activity: 30 Minute Incubation Time (sample Calibrator E): 110 % Normal
% Normal ADAMTS13 Activity: 30 Minute Incubation Time (sample FACT lot 222e1): 111 % Normal
% Normal ADAMTS13 Activity: 30 Minute Incubation Time (sample FACT lot 1223): 107 % Normal
% Normal ADAMTS13 Activity: 30 Minute Incubation Time (sample NPP032206): >Calibrator E
% Normal ADAMTS13 Activity: 30 Minute Incubation Time (sample NPP032206 HI): 9 % Normal
% Normal ADAMTS13 Activity: 30 Minute Incubation Time (sample NPP032206 at 37C): 106 % Normal
% Normal ADAMTS13 Activity: 30 Minute Incubation Time (sample NPP032206 mixed): 57 % Normal
% Normal ADAMTS13 Activity: 30 Minute Incubation Time (sample Positive Control High): 50 % Normal
% Normal ADAMTS13 Activity: 30 Minute Incubation Time (sample Positive Control Low): 14 % Normal
% Normal ADAMTS13 Activity: 30 Minute Incubation Time (sample UAMS041609): 31 % Normal
% Normal ADAMTS13 Activity: 30 Minute Incubation Time (sample VF040901): 10 % Normal
Increase in Fluorescence Values (X minute - 0 minute Reading) (sample Calibrator A, 15 min): 676 RFU
Increase in Fluorescence Values (X minute - 0 minute Reading) (sample Calibrator A, 30 min): 843 RFU
Increase in Fluorescence Values (X minute - 0 minute Reading) (sample Calibrator A, 45 min): 921 RFU
Increase in Fluorescence Values (X minute - 0 minute Reading) (sample Calibrator A, 60 min): 1,166 RFU
Increase in Fluorescence Values (X minute - 0 minute Reading) (sample Calibrator A, 75 min): 1,013 RFU
Increase in Fluorescence Values (X minute - 0 minute Reading) (sample Calibrator A, 90 min): 959 RFU
% Normal ADAMTS13 Values Calculated Using GTI_FRET4 Substrate (sample Calibrator A, incubation 15 Minutes): 1 % Normal
% Normal ADAMTS13 Values Calculated Using GTI_FRET4 Substrate (sample Calibrator A, incubation 30 Minutes): 1 % Normal
% Normal ADAMTS13 Values Calculated Using GTI_FRET4 Substrate (sample Calibrator A, incubation 45 Minutes): 0 % Normal
% Normal ADAMTS13 Values Calculated Using GTI_FRET4 Substrate (sample Calibrator A, incubation 60 Minutes): 0 % Normal
% Normal ADAMTS13 Values Calculated Using GTI_FRET4 Substrate (sample Calibrator A, incubation 75 Minutes): 0 % Normal
% Normal ADAMTS13 Values Calculated Using GTI_FRET4 Substrate (sample Calibrator A, incubation 90 Minutes): 0 % Normal
Increase in Fluorescence Values (X minute - 0 minute Reading) (sample Calibrator B, 15 min): 1,765 RFU
Increase in Fluorescence Values (X minute - 0 minute Reading) (sample Calibrator B, 30 min): 3,000 RFU
Increase in Fluorescence Values (X minute - 0 minute Reading) (sample Calibrator B, 45 min): 4,164 RFU
Increase in Fluorescence Values (X minute - 0 minute Reading) (sample Calibrator B, 60 min): 5,358 RFU
Increase in Fluorescence Values (X minute - 0 minute Reading) (sample Calibrator B, 75 min): 6,468 RFU
Increase in Fluorescence Values (X minute - 0 minute Reading) (sample Calibrator B, 90 min): 7,581 RFU
% Normal ADAMTS13 Values Calculated Using GTI_FRET4 Substrate (sample Calibrator B, incubation 15 Minutes): 7 % Normal
% Normal ADAMTS13 Values Calculated Using GTI_FRET4 Substrate (sample Calibrator B, incubation 30 Minutes): 7 % Normal
% Normal ADAMTS13 Values Calculated Using GTI_FRET4 Substrate (sample Calibrator B, incubation 45 Minutes): 7 % Normal
% Normal ADAMTS13 Values Calculated Using GTI_FRET4 Substrate (sample Calibrator B, incubation 60 Minutes): 7 % Normal
% Normal ADAMTS13 Values Calculated Using GTI_FRET4 Substrate (sample Calibrator B, incubation 75 Minutes): 6 % Normal
% Normal ADAMTS13 Values Calculated Using GTI_FRET4 Substrate (sample Calibrator B, incubation 90 Minutes): 6 % Normal
Increase in Fluorescence Values (X minute - 0 minute Reading) (sample Calibrator C, 15 min): 6,178 RFU
Increase in Fluorescence Values (X minute - 0 minute Reading) (sample Calibrator C, 30 min): 11,701 RFU
Increase in Fluorescence Values (X minute - 0 minute Reading) (sample Calibrator C, 45 min): 16,807 RFU
Increase in Fluorescence Values (X minute - 0 minute Reading) (sample Calibrator C, 60 min): 21,705 RFU
Increase in Fluorescence Values (X minute - 0 minute Reading) (sample Calibrator C, 75 min): 26,685 RFU
Increase in Fluorescence Values (X minute - 0 minute Reading) (sample Calibrator C, 90 min): 32,209 RFU
% Normal ADAMTS13 Values Calculated Using GTI_FRET4 Substrate (sample Calibrator C, incubation 15 Minutes): 32 % Normal
% Normal ADAMTS13 Values Calculated Using GTI_FRET4 Substrate (sample Calibrator C, incubation 30 Minutes): 33 % Normal
% Normal ADAMTS13 Values Calculated Using GTI_FRET4 Substrate (sample Calibrator C, incubation 45 Minutes): 33 % Normal
% Normal ADAMTS13 Values Calculated Using GTI_FRET4 Substrate (sample Calibrator C, incubation 60 Minutes): 34 % Normal
% Normal ADAMTS13 Values Calculated Using GTI_FRET4 Substrate (sample Calibrator C, incubation 75 Minutes): 35 % Normal
% Normal ADAMTS13 Values Calculated Using GTI_FRET4 Substrate (sample Calibrator C, incubation 90 Minutes): 36 % Normal
Increase in Fluorescence Values (X minute - 0 minute Reading) (sample Calibrator D, 15 min): 10,887 RFU
Increase in Fluorescence Values (X minute - 0 minute Reading) (sample Calibrator D, 30 min): 20,626 RFU
Increase in Fluorescence Values (X minute - 0 minute Reading) (sample Calibrator D, 45 min): 29,206 RFU
Increase in Fluorescence Values (X minute - 0 minute Reading) (sample Calibrator D, 60 min): 37,289 RFU
Increase in Fluorescence Values (X minute - 0 minute Reading) (sample Calibrator D, 75 min): 44,543 RFU
Increase in Fluorescence Values (X minute - 0 minute Reading) (sample Calibrator D, 90 min): 53,613 RFU
Sequence: DREKAPNLVYMVTGCPASDEIKRLPGDIQVVPIEVIGWPNAPILIQDEETLPREAPDLVLQR [GTI_FRET4]
